Patent publication US20220332804A1 (CSL INNOVATION, published 2022)

Legend:
Assay in all cases: SPR, KD relative to WT C2;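 also: biacore SPR at 37 °C, anti-C2 mAbs captured on anti-human IgG chips with alanine or serine point mutants of C2 as analyte, KD from 1:1 fit compared with wild-type C2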
[1] = molecular target: T1, human C2 S456A (human, UniProt P06681 21-752)
T1 sequence: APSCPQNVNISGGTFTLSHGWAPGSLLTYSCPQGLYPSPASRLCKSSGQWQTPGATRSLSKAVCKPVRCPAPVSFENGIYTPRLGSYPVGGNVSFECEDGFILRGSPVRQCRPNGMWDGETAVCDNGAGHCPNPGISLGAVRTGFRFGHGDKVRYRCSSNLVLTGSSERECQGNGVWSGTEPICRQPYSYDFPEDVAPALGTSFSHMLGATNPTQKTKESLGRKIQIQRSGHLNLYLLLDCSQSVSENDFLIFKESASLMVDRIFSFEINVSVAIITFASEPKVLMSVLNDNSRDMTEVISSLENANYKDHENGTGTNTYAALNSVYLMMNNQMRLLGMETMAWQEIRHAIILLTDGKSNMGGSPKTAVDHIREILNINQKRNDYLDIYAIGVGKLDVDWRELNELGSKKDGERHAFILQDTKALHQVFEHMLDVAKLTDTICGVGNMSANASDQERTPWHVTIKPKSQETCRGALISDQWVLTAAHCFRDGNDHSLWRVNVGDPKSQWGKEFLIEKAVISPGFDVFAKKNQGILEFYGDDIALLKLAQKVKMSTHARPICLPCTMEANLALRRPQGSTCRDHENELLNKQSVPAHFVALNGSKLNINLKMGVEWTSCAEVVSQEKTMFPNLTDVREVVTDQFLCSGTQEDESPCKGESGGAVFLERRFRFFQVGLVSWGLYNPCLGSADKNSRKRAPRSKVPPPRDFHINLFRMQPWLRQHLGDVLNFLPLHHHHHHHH

[2] = molecular target: T2, human C2 A472S (human, UniProt P06681 21-752)
T2 sequence: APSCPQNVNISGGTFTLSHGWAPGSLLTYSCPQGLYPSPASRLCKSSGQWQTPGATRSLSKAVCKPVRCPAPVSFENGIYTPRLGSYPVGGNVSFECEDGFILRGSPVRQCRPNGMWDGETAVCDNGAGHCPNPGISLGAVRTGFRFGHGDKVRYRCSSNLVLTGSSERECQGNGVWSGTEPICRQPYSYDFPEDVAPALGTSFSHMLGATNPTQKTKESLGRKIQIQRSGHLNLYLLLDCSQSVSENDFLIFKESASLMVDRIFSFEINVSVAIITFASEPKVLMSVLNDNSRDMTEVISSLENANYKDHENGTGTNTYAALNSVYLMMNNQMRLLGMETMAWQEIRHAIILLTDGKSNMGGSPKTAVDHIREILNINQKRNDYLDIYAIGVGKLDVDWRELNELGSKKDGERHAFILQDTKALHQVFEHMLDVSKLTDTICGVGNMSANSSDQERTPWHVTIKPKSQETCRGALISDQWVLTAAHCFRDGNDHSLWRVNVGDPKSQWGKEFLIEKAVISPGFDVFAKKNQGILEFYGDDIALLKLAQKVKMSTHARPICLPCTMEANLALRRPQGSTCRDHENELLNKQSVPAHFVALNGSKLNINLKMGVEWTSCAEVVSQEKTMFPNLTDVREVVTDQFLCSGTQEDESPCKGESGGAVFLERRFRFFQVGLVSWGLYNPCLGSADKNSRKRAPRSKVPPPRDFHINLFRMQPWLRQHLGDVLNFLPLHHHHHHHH

[3] = molecular target: T3, human C2 T442A (human, UniProt P06681 21-752)
T3 sequence: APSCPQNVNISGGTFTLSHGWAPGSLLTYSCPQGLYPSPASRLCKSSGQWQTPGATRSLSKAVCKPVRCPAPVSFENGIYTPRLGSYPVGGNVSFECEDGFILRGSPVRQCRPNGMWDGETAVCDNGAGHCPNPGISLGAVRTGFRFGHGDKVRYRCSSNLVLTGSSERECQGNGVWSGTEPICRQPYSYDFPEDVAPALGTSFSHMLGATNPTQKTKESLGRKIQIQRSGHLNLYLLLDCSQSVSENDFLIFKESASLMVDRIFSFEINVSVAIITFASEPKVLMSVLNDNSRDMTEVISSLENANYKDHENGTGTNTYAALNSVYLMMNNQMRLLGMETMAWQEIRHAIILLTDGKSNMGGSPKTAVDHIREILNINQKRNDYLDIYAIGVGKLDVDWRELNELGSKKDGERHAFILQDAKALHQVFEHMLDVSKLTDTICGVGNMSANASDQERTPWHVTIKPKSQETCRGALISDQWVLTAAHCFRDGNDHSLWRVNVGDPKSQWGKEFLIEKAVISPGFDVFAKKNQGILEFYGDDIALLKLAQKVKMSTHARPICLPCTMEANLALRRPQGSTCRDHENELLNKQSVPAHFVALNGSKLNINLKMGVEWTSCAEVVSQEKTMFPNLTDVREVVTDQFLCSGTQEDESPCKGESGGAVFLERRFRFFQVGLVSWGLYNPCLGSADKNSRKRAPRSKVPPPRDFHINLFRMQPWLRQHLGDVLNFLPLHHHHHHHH

[4] = molecular target: T4, human C2 M316A (human, UniProt P06681 21-752)
T4 sequence: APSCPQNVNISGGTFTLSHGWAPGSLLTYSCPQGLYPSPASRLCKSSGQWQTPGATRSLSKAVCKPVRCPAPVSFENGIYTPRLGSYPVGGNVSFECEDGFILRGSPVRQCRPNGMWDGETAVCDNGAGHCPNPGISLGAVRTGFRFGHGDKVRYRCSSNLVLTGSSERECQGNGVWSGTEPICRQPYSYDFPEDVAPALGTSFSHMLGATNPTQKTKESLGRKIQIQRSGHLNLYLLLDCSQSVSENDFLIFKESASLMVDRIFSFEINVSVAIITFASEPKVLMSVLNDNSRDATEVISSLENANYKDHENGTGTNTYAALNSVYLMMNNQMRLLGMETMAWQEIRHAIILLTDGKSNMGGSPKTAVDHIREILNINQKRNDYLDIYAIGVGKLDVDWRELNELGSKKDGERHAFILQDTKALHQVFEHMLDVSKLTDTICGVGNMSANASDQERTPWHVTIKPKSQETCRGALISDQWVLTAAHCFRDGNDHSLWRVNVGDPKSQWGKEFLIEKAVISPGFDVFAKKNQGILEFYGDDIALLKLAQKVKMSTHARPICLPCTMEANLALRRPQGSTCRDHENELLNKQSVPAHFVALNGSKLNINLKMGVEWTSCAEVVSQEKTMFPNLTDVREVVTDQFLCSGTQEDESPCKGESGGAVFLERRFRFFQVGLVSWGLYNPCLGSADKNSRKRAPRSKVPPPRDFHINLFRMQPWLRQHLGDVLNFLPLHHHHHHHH

B1: RF16-242 (antibody, human IgG4 S228P, lambda, V domains shown)
VH: EVQLLQSGAEVKKPGESLKISCKGSGYSFTSYWIGWVRQMPGKGLEWMGIIYPGDSDTRYSPSFQGQVTISADKSISTAYLQWSSLKASDTAMYYCARRGHYGDYFDYWGQGTLVTVSS
VL: SYELTQPPSVSVSPGQTARITCSGDALPKKYAYWYHQKSGQAPVLVIYEDRRRPSEIPERFSGSSSGTMATLTITGAQVEDEGVYFCYSRDRAGNQRVFGGGTQLTVLG
notes: pH-dependent anti-C2 antibody from a phage display library
B1 showed a Fold diff [1] of 9 fold, a Fold diff [2] of 7 fold and a Fold diff [3] of 3 fold. The Fold diff [4] was 1 fold.
